The source of these data is publication PMC4268158 (Nature, 2014).

Data set [1] deals with the molecule itself. Description: SEC + other: negative-stain EM.
Data set [2] concerns the molecule itself. The experiment in a line: SEC + other: negative-stain EM. The source holds these as a separate data set.
The data set “cryo-EM structure” concerns the molecule itself. Description: cryo-EM structure.
Data set [3] has as its target T1, CsgE-his (pNH27) (Escherichia coli), P0AE95.
T1 chain: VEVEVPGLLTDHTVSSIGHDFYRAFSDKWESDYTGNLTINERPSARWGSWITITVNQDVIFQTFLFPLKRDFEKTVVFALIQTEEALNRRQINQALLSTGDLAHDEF
The experiment in a line: SEC. The conditions noted are these: remark: other sources report otherwise.

In data set [4] the target is T1, CsgE-his (pNH27) (Escherichia coli), …. The experiment in a line: negative-stain EM. The note with it: remark: other sources report otherwise.
Data set [5] shares this target. The experiment in a line: cryo-EM structure. The conditions noted are these: remark: other sources report otherwise.
Data set [6] shares this target. The experiment in a line: cryo-EM class averages. The note with it: remark: other sources report otherwise.

Positions count from the first letter of the chain named. Values joined by “and” are separate entries in the source; they are usually repeats but may differ in a detail not shown here. Equal values may be shown once.

B1: CsgGC1S, non-lipidated soluble periplasmic form, C-terminally StrepII-tagged (pPG2) (natural protein, Escherichia coli, UniProt P0AEA2 16-277, looked up)
chain: SLTAPPKEAARPTLMPRAQSYKDLTHLPAPTGKIFVSVYNIQDETGQFKPYPASNFSTAVPQSATAMLVTALKDSRWFIPLERQGLQNLLNERKIIRAAQENGTVAINNRIPLQSLTAANIMVEGSIIGYESNVKSGGVGARYFGIGADTQYQLDQIAVNLRVVNVSTGEILSSVNTSKTILSYEVQAGVFRFIDYQRLLEGEVGYTSNEPVMLCLMSAIETGVIFLINDGIDRGLWDLQNKAERQNDILVKYRHMSVPPES
Take B1: the stoichiometry N (as a rule, the number of molecules, sites or subunits per partner or assembly) in data set [1] was 16 and 8.

B2: CsgG, native membrane-extracted, C-terminally StrepII-tagged (pPG1) (natural protein, Escherichia coli, UniProt P0AEA2 16-277, looked up)
chain: B1 chain with S1C
modifications: diacylglycerol- and amide-linked acyl chain on the N-terminal Cys (lipid anchor)
In the case of B2, the “stoichiometry N” value in data set [2] came to 18; in “cryo-EM structure”, 9.

B3: CsgE-his (pNH27), P0AE95 23-129 (natural protein)
chain: T1 chain
For B3, the stoichiometry N in data set [3] came out at 9.16; in data set [4], 9; in data set [5], 9; in data set [6], 9.
